“And” between values parts separate entries of the source, which are not always exact repeats. Identical values can stand only once. Like-named read-outs stand apart in the source and are kept apart here.

These results are taken from patent US6132730.

Test [1] deals with IgG-H6-N'-cys-tTF219 (human).
The target of test [2] is truncated Tissue Factor tTF219 (extracellular domain of the mature Tissue Factor protein, amino acids 1-219) (human).
For test [3] the target is unchanged. This is another data set of the same source.
In test [4] the target is H6-N'-cys-tTF219 dimer (human).
Test [5] addresses H6-tTF221-cys-C' (human).
Test [6] deals with truncated Tissue Factor tTF219 (extracellular domain of the mature Tissue Factor protein, amino acids 1-219) (human). This is another data set of the same source.
The target of test [7] is H6-tTF221-cys-C' (human). This is another data set of the same source.
Test [8] concerns the target truncated Tissue Factor tTF219 (extracellular domain of the mature Tissue Factor protein, amino acids 1-219) (human). The source holds these as a separate data set.
Test [9] shares this target. The source holds these as a separate data set.
Test [10] deals with I-A^d (MHC Class II antigen) on A20 mouse B-lymphoma cells (mouse) (UniProt P04228).

Consider “B21-2/10H10 bispecific antibody (Fab' arm of B21-2 linked to Fab' arm of 10H10)”, for which the tTF concentration at which plasma coagulated in 50 seconds (A20 cells coated with B21-2/10H10) in test [1] is 5 nM; in test [2], 1 nM; in test [3] it was 100 pM; in test [4], 100 pM and 200 pM; with H6-tTF221-cys-C' (human) [5], 1 nM; with H6-tTF220-cys-C' (human), 500 pM. The tTF concentration at which plasma coagulated in 50 seconds (A20 cells coated with B21-2/10H10) in test [6] turned out to be 500 pM; with tTF221-cys-C' (human), 500 pM; with H6-tTF221-cys-C' (human) [7] it was 500 pM; with tTF220-cys-C' (human) it was 500 pM; in test [8] it was 3 nM; with H6-tTF219-cys-C' (human), 3 nM. The substance further displayed a tTF concentration at which plasma coagulated in 50 seconds (A20 cells coated with B21-2/10H10) in the test with H6-N'-cys-tTF219 (human) of 3 nM. Moreover, the clotting time of citrated mouse plasma on A20 cells in test [9] and in test [10] was 36 s throughout.
